# Results published in the RNAGym collection of RNA variant scans (doi:10.1073/pnas.2313332121).
# B1: TPR t1 (parent)
# chain: GACCAAUCUGCCCUCAGAGCUCGAGAACAUCUUCGGAUGCAGAGGAGGCAGGCUUCGGUGGCGCGAUAGCGCCAACGUCCUCAACCUCCAAUGCAUCCCACCACAUGAUGAUGCCUGAAGAGCCUUGGUUUUUUG
# Variants of: B1
# Assay: polymerase ribozyme fitness, log enrichment relative to wild type (log ratio); higher = more active; in vitro selection for triplet polymerase activity
# Outline: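 Libraries of mutants in each subunit of a heterodimeric triplet polymerase ribozyme were generated by PCR and transcribed. In triplicate, each went through one in vitro selection round: annealing with biotinylated primer, partner subunit and triplets; frozen incubation at −7 °C; gel excision of extended constructs; streptavidin-bead capture; RT-PCR. Fitness, taken from Illumina sequencing of input and output libraries, is the logarithm of a genotype's enrichment over wild-type enrichment, averaged across replicates with inverse-variance weights. The logarithm is base 2, and genotypes needed ≥10 input reads and ≥1 read per output to be kept.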
row,Variant,polymerase ribozyme fitness (log ratio)
1,G48U C49G,-0.587
2,G48U G117C,-4.06
3,C49A G71U,-0.754
4,C49A C53A C86A U112G G128A,-3.85
5,C49A G52C G60A U112G G127C,-2.8
6,G47U U92G G117C,-7.27
7,G48U C49G G63U,-1.73
8,C49A C82A,-1.17
9,G48U C123A U126A,-2.05
10,G48A U54G C85U,-0.681
11,G48U G120U,-0.428
12,G48C G77A U130G,-2.05
13,G48U G107U A111C C123A,-5.41
14,G48C G60U,-2.22
15,G48C U106G,-1.5
16,G48C U106C,-1
17,G48A U132A,-0.715
18,G48A U92A U106A,-3.9
19,G48A U54A A84U U129A,-1.42
20,G48A G60U,-0.531
21,G48A C62A C82A C85G G110C U133A,-7.12

row,Variant,polymerase ribozyme fitness (log ratio)
1,G48U C64U G120A C123U,0.28
2,G48U G93A,-0.946
3,G47U U81A G122U C123U U130C U131A,-2.99
4,C49A G60C G127A U131A,-3.76
5,G48C C72G C104A G120C G128A,-4.3
6,G48A C70U,-1.3
7,G48U C56G C64U C101A,-2.95
8,G48C C49G C72U C97U U116G,-2.86
9,G48U C72U C73A G127A G135C,-1.64
10,G48A C70U C115A,-1.87
11,G48U U59A U116C C124U,-0.336
12,G48U C88A A91C,-2.5
13,G48A G113A,-1.61
14,G48A G63C C82G G113U U132A,-3.71
15,G48C U55G C62A C79U A84C C85G G93U C124A,-0.918
16,G48A G71C A105C,-4.88
17,C49A C79G A103G U112G C114U U116C,-7.2
18,G47U U78G,-1.6
19,C49A C85A G93C U106A,-1.01
20,G48C U78C G120C C124G,0.298
21,G48U G110U,-2.84

row,Variant,polymerase ribozyme fitness (log ratio)
1,G48U C82U,-1.32
2,G48U U109C,-4.94
3,C49A A50C,-0.838
4,G48U U87G C115G,-0.14
5,C49A C73A C88U A91U C124U,-0.744
6,G48U,-0.903
7,G48C,-0.943
8,G48A,-0.658
9,G48A C73U A119G,0.718
10,G48U C89A,-1.52
11,G48U C49U G71C C86A,-2.67
12,G48A U96A C104U U131A,-1.66
13,G48U C99U,-3.34
14,G48C C85U G117U,-3.32
15,G48C G52A C102A A111C A119U,-4.33
16,C49A A83C,-1.24
17,C49A C101G C115A G120A,-2.2
18,G48C C72G,-0.77
19,G48A G122C C123G G127A,-2.37
20,G48U U54C G71U U116C G122U,-2.51
21,G48A G69A,-4.63

row,Variant,polymerase ribozyme fitness (log ratio)
1,G48C G69U,-0.209
2,C49A G52C U96C,-0.622
3,G48U C79A U112A,-2.84
4,C49A A103C,-5.44
5,C49A C53A U116C,-1.16
6,G48C C73G G93A C124A,-1.39
7,G48A G127C,-2.52
8,G48A G63A C86U U116A C124U,-2.18
9,G48A C123G,0.439
10,G48A G117U,-2.2
11,G48C G71A A108G U112C G117U,-6.18
12,G48U U92A,-3.38
13,C49A G57A G110C,-6.31
14,G48A U59C C82A G93C U116G U131A,-4.51
15,C49A G63U G117A,-3.12
16,G48A C89A,-1.71
17,G48A G63A C101A,-2.45
18,G48U C72A,-0.467
19,G48C A83G G122U,-1.4
20,G48U C62G A91U C123U U125A,-5.93
21,G48U A121U,0.519
